Series [1] concerns the target T1, SmMTAP (Schistosoma mansoni, UniProt I0B503).
T1 construct: trimer; adult worm cDNA, corrected 3' end versus gene model Smp_028190
T1 sequence (I0B503 1-299): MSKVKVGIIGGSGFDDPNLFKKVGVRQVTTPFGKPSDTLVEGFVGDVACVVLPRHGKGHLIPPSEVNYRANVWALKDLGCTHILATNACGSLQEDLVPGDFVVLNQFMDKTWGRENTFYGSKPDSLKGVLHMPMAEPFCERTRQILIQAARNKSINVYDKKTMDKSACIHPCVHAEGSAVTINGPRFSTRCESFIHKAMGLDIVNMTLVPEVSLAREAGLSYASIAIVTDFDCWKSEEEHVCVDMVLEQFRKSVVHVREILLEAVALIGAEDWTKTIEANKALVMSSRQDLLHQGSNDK
Description: X-ray crystal structure. Type of series: binding.

The target in series [2] is SmMTAP S12T/N87T double mutant (Schistosoma mansoni). Description: crystal structure.
In series [3] the target is Schistosoma mansoni 5'-deoxy-5'-methylthioadenosine phosphorylase, wild type (Schistosoma mansoni). Description: crystal structure; hanging drop at 18°C, 100 mM Bis-tris or MES pH 6.1-6.7, 14-18% PEG 3350, protein 6 mg/mL; apo or with adenine, MTA, tubercidin, sulphate; one or two trimers in the asymmetric unit.
Series [4] deals with SmMTAP N87T mutant (Schistosoma mansoni). Description: crystal structure.
Series [5] deals with SmMTAP S12T mutant (Schistosoma mansoni). Description: crystal structure.
For series [6], the target named is SmMTAP Q289L mutant (Schistosoma mansoni). Description: crystal structure.
Substrate in series [7]: O=P(O)(O)O
Description: purified protein. Particulars: 100 mM Hepes pH 7.4, room temperature, nucleoside co-substrate not stated.

Substrate in series [8]: CSC[C@H]1O[C@@H](n2cnc3c(N)ncnc32)[C@H](O)[C@@H]1O
Description: xanthine oxidase coupled assay, A305. The series is classed as biochemical, Schistosoma mansoni. Particulars: 100 mM potassium phosphate pH 7.4, room temperature. An excerpt:
(§1) xanthine oxidase coupled assay, A305 on SmMTAP

Substrate in series [9]: Nc1ncnc2c1ncn2[C@@H]1O[C@H](CO)[C@@H](O)[C@H]1O
Description: xanthine oxidase coupled assay, A305. Type of series: biochemical, Schistosoma mansoni. Particulars: 100 mM potassium phosphate pH 7.4, room temperature.
Source text: as §1

Substrate in series [10]: Nc1ncnc2c1ncn2[C@H]1C[C@H](O)[C@@H](CO)O1
Description: xanthine oxidase coupled assay, A305. Particulars: 100 mM potassium phosphate pH 7.4, room temperature. The series is classed as biochemical, Schistosoma mansoni.
Source text: as §1

In the case of `Nc1ncnc2c1ccn2[C@@H]1O[C@H](CO)[C@@H](O)[C@H]1O` [tubercidin], in series [1] (active site, crystals grown with 5 mM ligand), the X-ray crystal structure result was “In the MTAP tubercidin complex, all of the active sites are occupied”.

The term stoichiometry N denotes a count of units in the complex or per binding partner. As to SmMTAP S12T/N87T double mutant (enzyme), the stoichiometry N in series [2] came out at 3.

On to `Nc1ncnc2[nH]cnc12` [adenine], for which the X-ray crystal structure entry in [1] (base binding site, grown at pH 6.1-6.7, PEG 3350) was “the only WT structure whose BBS are all occupied is the orthorhombic SmMTAP adenine complex”.

In [3], “Schistosoma mansoni 5'-deoxy-5'-methylthioadenosine phosphorylase, wild type (enzyme)” showed a stoichiometry N of 3.

Take SmMTAP N87T mutant (enzyme): the stoichiometry N in series [4] was 3.

For the molecule SmMTAP S12T mutant (enzyme), the stoichiometry N in [5] came to 3.

SmMTAP Q289L mutant (enzyme) came in with a stoichiometry N in series [6] of 3.

B1: SmMTAP (Schistosoma mansoni) (protein)
chain: MSKVKVGIIGGSGFDDPNLFKKVGVRQVTTPFGKPSDTLVEGFVGDVACVVLPRHGKGHLIPPSEVNYRANVWALKDLGCTHILATNACGSLQEDLVPGDFVVLNQFMDKTWGRENTFYGSKPDSLKGVLHMPMAEPFCERTRQILIQAARNKSINVYDKKTMDKSACIHPCVHAEGSAVTINGPRFSTRCESFIHKAMGLDIVNMTLVPEVSLAREAGLSYASIAIVTDFDCWKSEEEHVCVDMVLEQFRKSVVHVREILLEAVALIGAEDWTKTIEANKALVMSSRQDLLHQGSNDK
notes: trimer; adult worm cDNA, corrected 3' end versus gene model Smp_028190
A word on the Km: it is the concentration of substrate that gives half-maximal velocity. Usually Vmax stands for the rate approached at saturating substrate. The term kcat denotes the maximal rate divided by the concentration of active sites. In general, kcat/Km refers to the turnover number divided by the Michaelis constant. Consider B1, for which, in series [7], the Km is 65.58 ± 4.69 µM, the Vmax turned out to be 0.0358 µM/min, the kcat came to 478 s⁻¹ and the kcat/Km is 7.28e+06 M⁻¹ s⁻¹. Also, in series [8], the Km was found to be 3.63 ± 0.14 µM, the Vmax stood at 0.0666 µM/min, the kcat amounted to 444 ± 5.72 s⁻¹ and the kcat/Km was 1.22e+08 ± 4.97e+06 M⁻¹ s⁻¹. In series [9], the Km is 3.14 ± 0.16 µM, the Vmax came to 0.0501 µM/min, the kcat stood at 334 ± 6.84 s⁻¹ and the kcat/Km is 1.06e+08 ± 5.84e+06 M⁻¹ s⁻¹. Besides, in [10], the Michaelis constant (Km) is 3.97 ± 0.41 µM, the Vmax was 0.0841 µM/min, the kcat was determined as 224 ± 11.3 s⁻¹ and the kcat/Km was found to be 5.65e+07 ± 6.49e+06 M⁻¹ s⁻¹.

Source of the values: article PMC5147791 (PLoS Neglected Tropical Diseases, 2016).
